Consider eight molecules from patent US11906524B2, “Urea biosensors and uses thereof” (Duke University, priority 2015, dated 2024).

Residue numbers refer to the chain shown, from its start. Names and notes keep the numbering of the source.

Sequences and labels used below:
B1: csUBP7 R95C: csUBP7 95C cysteine mutant (SEQ ID NO: 32), tested as Acrylodan and Badan conjugates (conjugate)
chain: MSSSESEKEKSEETIKVGILHSLSGTMSISEVSLKDAELMAIEEINNNGGVLGKKLEPIVEDGASDWPTFAEKAKKLLQKDKVAVIFGAWTSASCKAVLPVVEENNGLLFYPVQYEGLESSPNIFYMGAAPNQQIVPAVKWLFDNGKKRFYLLGSDYVFPRTANKIIKAYLKYLGGVVVGEEYTPLGHTDYSSVINKIKAAKPDVVFNTLNGDSNVAFFKQLKDAGIDANTLPVMSVSIAEEEIKGIGPEYLKGHLVTWNYFQSVDTPENKEFVEKYKKKYGEDRVTDDPIEAAYIGVYLWAKAVEKAGSTDVDKVREAAKGIEFNAPEGPVKIDGDNQHLYKTVRIGEILENGQIRELWKTNKPVKPDPYLKGYEWAQGLSEQGGSHHHHHH
modifications: Acrylodan or Badan conjugate; csUBP7_95C (95C substitution mutant with signal peptide replaced with M and a GGSHHHHHH at C-terminus, and also comprising a C89A substitution)
B2: csUBP7 M27C: csUBP7 27C cysteine mutant (SEQ ID NO: 24), tested as Acrylodan and Badan conjugates (conjugate)
chain: B1 chain with M27C, C95R
modifications: Acrylodan or Badan conjugate; csUBP7_27C (27C substitution mutant with signal peptide replaced with M and a GGSHHHHHH at C-terminus, and also comprising a C89A substitution)
B3: csUBP7 E116C: csUBP7 116C cysteine mutant (SEQ ID NO: 36), tested as Acrylodan and Badan conjugates (conjugate)
chain: B1 chain with C95R, E116C
modifications: Acrylodan or Badan conjugate; csUBP7_116C (116C substitution mutant with signal peptide replaced with M and a GGSHHHHHH at C-terminus, and also comprising a C89A substitution)
B4: csUBP7 W90C: csUBP7 90C cysteine mutant (SEQ ID NO: 28), tested as Acrylodan and Badan conjugates (conjugate)
chain: B1 chain with W90C, C95R
modifications: Acrylodan or Badan conjugate; csUBP7_90C (90C substitution mutant with signal peptide replaced with M and a GGSHHHHHH at C-terminus, and also comprising a C89A substitution)
B5: csUBP7 T91C: csUBP7 91C cysteine mutant (SEQ ID NO: 29), tested as Acrylodan and Badan conjugates (conjugate)
chain: B1 chain with T91C, C95R
modifications: Acrylodan or Badan conjugate; csUBP7_91C (91C substitution mutant with signal peptide replaced with M and a GGSHHHHHH at C-terminus, and also comprising a C89A substitution)
B6: csUBP7 T26C: csUBP7 26C cysteine mutant (SEQ ID NO: 23), tested as Acrylodan and Badan conjugates (conjugate)
chain: B1 chain with T26C, C95R
modifications: Acrylodan or Badan conjugate; csUBP7_26C (26C substitution mutant with signal peptide replaced with M and a GGSHHHHHH at C-terminus, and also comprising a C89A substitution)
B7: csUBP7 S30C: csUBP7 30C cysteine mutant (SEQ ID NO: 25), tested as Acrylodan and Badan conjugates (conjugate)
chain: B1 chain with S30C, C95R
modifications: Acrylodan or Badan conjugate; csUBP7_30C (30C substitution mutant with signal peptide replaced with M and a GGSHHHHHH at C-terminus, and also comprising a C89A substitution)
B8: csUBP7 T69C: csUBP7 69C cysteine mutant (SEQ ID NO: 27), tested as Acrylodan and Badan conjugates (conjugate)
chain: B1 chain with T69C, C95R
modifications: Acrylodan or Badan conjugate; csUBP7_69C (69C substitution mutant with signal peptide replaced with M and a GGSHHHHHH at C-terminus, and also comprising a C89A substitution)

The nature of the first assay: Urea titration of emission intensity spectra (Nanodrop3300) with ratiometric analysis, singly labeled conjugates. The assay is classed as binding. Set-up: key to Acrylodan Intensity / Badan Intensity: +, increases in response to urea; −, decreases; 0, no change; key to Badan Dipoles / Acrylodan Dipoles: blue, (maxima <500 nm); g, green (maxima >500 nm); b/g, mixed population; key to Acrylodan Shape / Badan Shape: m, monochromatic; d, dichromatic (i.e. spectral shape changes); 0, no change. Conditions: Acrylodan and Badan conjugates screened. From the text: Determination of emission intensity spectra.
(§1) Ratiometric analysis of urea binding. […] 2
(§2) For a single urea-binding site, the fractional saturation is given by
(§3) [formula] where [L] is the ligand (urea) concentration and Kd the dissociation constant, ^trueKd for ytrue.
[formula] where ^appIλ2 and ^satIλ2 are the emission intensities of the monochromatic signal at wavelength λ2 of the ligand-free and ligand-bound protein, respectively.
As for B1, the “ratiometric response to urea” value is reported as “good ratiometric responses”.

Staying with this assay, now noted: csUBP7 Acrylodan conjugate; emission intensity change on urea.
For B1, the “Acrylodan Intensity” value was “−”.
Still for that read-out and setting: as for B2, the entry is “+”; as for B3, “+”.
Turning to B4, the “Acrylodan Intensity” value is given as “+”.
Same read-out and setting: the entry for B5 is “−”.
As to B6, the “Acrylodan Intensity” value is given as “−”.
Same read-out and setting: the entry for B7 is “+”.

Still in this assay, the particulars now being: csUBP7 Acrylodan conjugate; emission spectrum shape change on urea.
Turning to B1, the “Acrylodan Shape” value is “m”.
On to B8, for which the “Acrylodan Shape” value came to 0.
On to B2, for which the “Acrylodan Shape” value is “m”.
For B3, the “Acrylodan Shape” value is listed as “d”.
On the same count and under the same terms, as for B4, the entry is “d”.
On the same count and under the same terms, the entry for B5 is “m”.
Same read-out and setting: as for B6, the entry is “d”; as for B7, “d”.

Still in this assay, the particulars now being: csUBP7 Acrylodan conjugate; estimated change in populations of major emission bands.
In the case of B1, the “Acrylodan Dipoles” value is given as “b (blue, (maxima <500 nm))”.
Turning to B8, the “Acrylodan Dipoles” value is “g (g, green (maxima >500 nm))”.
Take B2: the “Acrylodan Dipoles” value is “g (g, green (maxima >500 nm))”.
Still for that read-out and setting: the entry for B3 is “b/g→g”; for B4 it is “b/g→b”; for B5 it is “b/g”.
On the same count and under the same terms, as for B6, the entry is “b→g”; as for B7, “b/g→b”.

Staying with this assay, now noted: csUBP7 Acrylodan conjugate; urea; read-out: Acrylodan ^trueKd.
B1: the Kd was determined as 300 µM.
B2: the Kd was determined as 4600 µM.
On to B3, for which the Kd was determined as 29000 µM.
For B4, the Kd stood at 7100 µM.
On to B5, for which the Kd stood at 700 µM.
In the case of B6, the Kd came to 90 µM.
On to B7, for which the Kd came to 5200 µM.

The assay is the same for the next values; noted with them: csUBP7 Badan conjugate; emission intensity change on urea.
Turning to B1, the “Badan Intensity” value is “+”.
Turning to B8, the “Badan Intensity” value was “−”.
For B2, the “Badan Intensity” value is “−”.
In the case of B3, the “Badan Intensity” value is on record as “−”.
Same read-out and setting: as for B4, the entry is “+”; as for B5, “−”.
On the same count and under the same terms, as for B6, the entry is “−”; as for B7, “+”.

Still in this assay, the particulars now being: csUBP7 Badan conjugate; emission spectrum shape change on urea.
For the molecule B1, the “Badan Shape” value is listed as “d”.
On to B8, for which the “Badan Shape” value is listed as “d”.
On to B2, for which the “Badan Shape” value was “d”.
On the same count and under the same terms, the entry for B3 is “m”; for B4 it is “m”.
On the same count and under the same terms, the entry for B5 is “d”.
The same measure, in the same setting: as for B6, the entry is “m”.
Turning to B7, the “Badan Shape” value is given as “d”.

Staying with this assay, now noted: csUBP7 Badan conjugate; estimated change in populations of major emission bands.
With B1, the “Badan Dipoles” value is listed as “g→b”.
On to B8, for which the “Badan Dipoles” value was “g→b/g”.
On the same count and under the same terms, as for B2, the entry is “g→b/g”; as for B3, “b/g”; as for B4, “b/g”.
Regarding B5, the “Badan Dipoles” value is reported as “b/g→b”.
For B6, the “Badan Dipoles” value was “b/g”.
The same measure, in the same setting: as for B7, the entry is “g→b”.

Still in this assay, the particulars now being: csUBP7 Badan conjugate; urea; read-out: Badan ^trueKd.
Consider B1, for which the Kd amounted to 2200 µM.
Still for that read-out and setting: the figure for B8 is 7 µM; for B2 it is 3200 µM; for B3 it is 10000 µM.
As to B4, the Kd is 8500 µM.
For B5, the Kd is 600 µM.
On the same count and under the same terms, as for B6, the figure is 300 µM; as for B7, 300 µM.

A further assay can be described thus: Temperature- and urea-dependent fluorescence landscapes of fluorescent conjugates (Roche LightCycler). Conditions: Acrylodan conjugate; fluorescent response to urea. It counts as binding. Set-up: key: y, yes; n, no. The procedure: We constructed 20 single cysteine mutants in csUBP7, exploring 7 endosteric, 12 peristeric, and 1 allosteric position (FIG. 9). At each position we attached the Prodan-derived fluorophores Acrylodan and Badan, which differ by one methylene group in their thiol-reactive linker. The fluorescent responses of these conjugates was determined initially as a function of urea concentration and temperature (FIG. 10). […] The ligand dependence of the emission spectra shapes was determined for these conjugates (Table 8).
Determination of temperature- and ligand-dependent fluorescence landscapes. […] Urea concentrations were varied from 0-4.8 M in 20 mM KCl, 20 mM MOPS (pH 7.4). […] Temperatures were advanced in 1K steps.
as §1, §2, §3
To obtain the temperature dependence of the binding reaction, the Kd values of all the individually determined isotherms were fit the Gibbs-Hemholtz equation (Layton and Hellinga, 2010, Biochemistry, 49, 10831-41):
[formula] where ΔGb^•(T) is the standard free energy of binding at 1 M ligand at temperature T,
[formula] Δ^refHb^• and Δ^refSb^• the molar enthalpy and entropy of binding, respectively, at the reference temperature, Tref, and ΔCp,b the heat capacity of the binding reaction.
B1: the Response entry is “y”.
Regarding B8, the Response result is reported as “n”.
On the same count and under the same terms, the entry for B2 is “y”; for B3 it is “y”; for B4 it is “y”.
Same read-out and setting: as for B5, the entry is “n”.
For the molecule B6, the Response result was “y”.
On the same count and under the same terms, the entry for B7 is “y”.

Still in this assay, the particulars now being: Badan conjugate; fluorescent response to urea.
For B1, the Response entry is “y”.
On the same count and under the same terms, the entry for B8 is “y”.
The same measure, in the same setting: the entry for B2 is “y”; for B3 it is “y”.
Same read-out and setting: as for B4, the entry is “y”; as for B5, “y”.
Take B6: the Response result is listed as “y”.
Take B7: the Response result is recorded as “y”.
